B1: human PQBP1(1–94) including WWD (domain or fragment, UniProt O60828 1-94, looked up)
chain: MPLPVALQTRLAKRGILKHLEPEPEEEIIAEDYDDDPVDYEATRLEGLPPSWYKVFDPSCGLPYYWNADTDLVSWLSPHDPNSVVTKSAKKLRS
notes: human PQBP1, residues 1-94, including the WW domain (WWD); Used in SPR and in NMR; also called WWD of PQBP1; PQBP1-WWD
B2: Tau(151–197) of Tau 410 (domain or fragment, human, UniProt P10636-5 151-197, looked up)
chain: IATPRGAAPPGQKGQANATRIPAKTPPAPKTPPSSGEPPKSGDRSGY
notes: numbers count on: Tau 410; pOPHLT-s has a TEV protease cleavage site after the His-tag and lipoyl domain; Isotope-labelled (15N); also called proline-rich region
B3: Tau(198–243) of Tau 410 (domain or fragment, human, UniProt P10636-5 198-243, looked up)
chain: SSPGSPGTPGSRSRTPSLPTPPTREPKKVAVVRTPPKSPSSAKSRL
notes: human tau, splice form Tau 410, residues 198-243; numbers count on: Tau 410; pOPHLT-s has a TEV protease cleavage site after the His-tag and lipoyl domain; Isotope-labelled (15N); also called proline-rich region
B4: human PQBP1 full-length form (PQBP1-FL) (natural protein, UniProt O60828 1-265, looked up)
chain: MPLPVALQTRLAKRGILKHLEPEPEEEIIAEDYDDDPVDYEATRLEGLPPSWYKVFDPSCGLPYYWNADTDLVSWLSPHDPNSVVTKSAKKLRSSNADAEEKLDRSHDKSDRGHDKSDRSHEKLDRGHDKSDRGHDKSDRDRERGYDKVDRERERDRERDRDRGYDKADREEGKERRHHRREELAPYPKSKKAVSRKDEELDPMDPSSYSDAPRGTWSTGLPKRNEAKTGADTTAAGPLFQQRPYPSPGAVLRANAEASRTKQQD
notes: also called full-length PQBP1

What was measured:
Conditions in all cases: both partners purified
[1] = target: T1, human Tau 410 full-length protein (3R tau), SPR construct (human, UniProt P10636-5 1-410); experiment: SPR; Tau proteins immobilised on CM5 sensor chips at 1200 RU; PQBP1 constructs loaded at multiple doses for 120 s; equilibrium response; BIAcore J, 25 °C; 10 mM Tris-HCl pH 8.5, 150 mM NaCl, 3 mM EDTA, 0.005% Tween-20
T1 construct: human tau, splice form Tau 410 (a representative 3R tau), 410 residues; numbers count on: Tau 410; source: E. coli Rosetta(DE3)pLysS, purified (Ni-NTA agarose); not shown: His-tag, N-terminal, kept
T1 sequence (P10636 other isoform, or with tags, fused parts or gaps): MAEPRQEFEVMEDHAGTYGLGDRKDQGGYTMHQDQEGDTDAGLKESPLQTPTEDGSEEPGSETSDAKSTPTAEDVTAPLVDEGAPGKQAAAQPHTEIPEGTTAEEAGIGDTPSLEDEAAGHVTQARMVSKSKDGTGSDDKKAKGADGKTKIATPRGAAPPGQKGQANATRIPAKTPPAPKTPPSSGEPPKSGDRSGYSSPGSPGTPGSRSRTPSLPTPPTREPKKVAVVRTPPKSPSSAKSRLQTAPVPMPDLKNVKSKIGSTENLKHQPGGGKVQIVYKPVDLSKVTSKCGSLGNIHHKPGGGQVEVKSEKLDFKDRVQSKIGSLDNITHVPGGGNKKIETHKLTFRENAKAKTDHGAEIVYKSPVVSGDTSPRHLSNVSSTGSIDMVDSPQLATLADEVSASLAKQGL

[2] = target: T2, human Tau 441 full-length protein (4R tau), SPR construct (human, UniProt P10636-8 1-441); experiment: as above
T2 construct: source: E. coli Rosetta(DE3)pLysS, purified (Ni-NTA agarose); not shown: His-tag, N-terminal, kept
T2 sequence (P10636 other isoform, or with tags, fused parts or gaps): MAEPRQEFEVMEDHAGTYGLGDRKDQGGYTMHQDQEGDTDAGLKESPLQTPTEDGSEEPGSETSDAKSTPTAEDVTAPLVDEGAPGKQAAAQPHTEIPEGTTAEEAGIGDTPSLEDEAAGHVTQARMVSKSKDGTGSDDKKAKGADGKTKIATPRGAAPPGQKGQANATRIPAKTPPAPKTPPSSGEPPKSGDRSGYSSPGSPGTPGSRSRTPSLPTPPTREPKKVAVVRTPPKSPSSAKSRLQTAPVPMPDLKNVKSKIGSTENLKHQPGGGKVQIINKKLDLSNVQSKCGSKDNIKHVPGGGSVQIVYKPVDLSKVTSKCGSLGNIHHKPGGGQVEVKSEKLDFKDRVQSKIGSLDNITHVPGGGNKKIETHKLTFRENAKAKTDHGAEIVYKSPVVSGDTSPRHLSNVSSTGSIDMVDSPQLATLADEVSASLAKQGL

[3] = target: T3, Tau(244–341) of Tau 410 (human, UniProt P10636-5 244-341); experiment: NMR titration; 1H-15N HSQC of labelled tau fragments without and with PQBP1(1–94), molar ratio Tau:PQBP1(1–94) 1:5; 0.1–0.5 mM tau, 20 mM sodium phosphate pH 7.0, 20 mM NaCl, 1 mM dithiothreitol, 283 K
T3 construct: human tau, splice form Tau 410, residues 244-341 (repeat region); numbers count on: Tau 410; Isotope-labelled (15N); also called the repeat region
T3 sequence (P10636 other isoform, or with tags, fused parts or gaps): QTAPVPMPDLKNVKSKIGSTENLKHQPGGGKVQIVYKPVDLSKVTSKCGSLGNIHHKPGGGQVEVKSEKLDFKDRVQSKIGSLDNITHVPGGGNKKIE

[4] = target: B1; experiment: as above
[5] = target: T4, Tau 410 P216A (human, UniProt P10636-5 1-410, P216A); experiment: SPR; Tau proteins immobilised on CM5 sensor chips at 1200 RU; PQBP1 constructs loaded at multiple doses for 120 s; equilibrium response; BIAcore J, 25 °C; 10 mM Tris-HCl pH 8.5, 150 mM NaCl, 3 mM EDTA, 0.005% Tween-20
T4 construct: human tau, splice form Tau 410, 410 residues, with P216A; numbers count on: Tau 410; also called Tau P216A; source: E. coli Rosetta(DE3)pLysS, purified (Ni-NTA agarose); not shown: His-tag, N-terminal, kept
T4 sequence (P10636 other isoform, or with tags, fused parts or gaps P216A | P216A | P216A P216A): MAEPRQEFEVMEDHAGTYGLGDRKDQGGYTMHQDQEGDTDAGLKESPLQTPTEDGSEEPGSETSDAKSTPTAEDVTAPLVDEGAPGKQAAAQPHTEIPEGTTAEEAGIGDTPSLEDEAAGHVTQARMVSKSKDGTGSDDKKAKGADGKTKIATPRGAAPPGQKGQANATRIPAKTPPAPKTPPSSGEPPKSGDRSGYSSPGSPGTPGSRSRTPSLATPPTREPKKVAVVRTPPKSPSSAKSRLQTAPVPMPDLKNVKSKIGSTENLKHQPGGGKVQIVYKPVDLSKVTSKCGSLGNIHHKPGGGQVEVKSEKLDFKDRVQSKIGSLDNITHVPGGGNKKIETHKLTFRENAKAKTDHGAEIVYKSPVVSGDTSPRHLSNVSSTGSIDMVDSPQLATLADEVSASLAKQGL

[6] = target: T5, Tau 441 P301S (human, UniProt P10636-8 1-441, P301S); experiment: as above
T5 construct: also called Tau P301S; FTLD-linked disease mutant of tau; source: bought: Signal Chem (T08-56GN)
T5 sequence (P10636 other isoform, or with tags, fused parts or gaps P301S | P301S | P301S P301S): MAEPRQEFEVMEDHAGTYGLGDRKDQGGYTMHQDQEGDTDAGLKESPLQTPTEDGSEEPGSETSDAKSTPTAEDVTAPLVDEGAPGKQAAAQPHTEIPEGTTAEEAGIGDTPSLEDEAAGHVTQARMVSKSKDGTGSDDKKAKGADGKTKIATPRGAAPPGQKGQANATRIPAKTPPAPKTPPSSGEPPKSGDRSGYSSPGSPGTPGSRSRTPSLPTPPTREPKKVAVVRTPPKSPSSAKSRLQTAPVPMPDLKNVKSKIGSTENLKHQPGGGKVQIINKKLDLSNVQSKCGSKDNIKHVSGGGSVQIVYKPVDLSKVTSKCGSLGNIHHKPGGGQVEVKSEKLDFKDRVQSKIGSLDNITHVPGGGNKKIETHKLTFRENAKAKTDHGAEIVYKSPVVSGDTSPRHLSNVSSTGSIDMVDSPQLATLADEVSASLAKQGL

[7] = target: T6, Tau 410 P179A (human, UniProt P10636-5 1-410, P179A); experiment: as above
T6 construct: human tau, splice form Tau 410, 410 residues, with P179A; numbers count on: Tau 410; also called Tau P179A; source: E. coli Rosetta(DE3)pLysS, purified (Ni-NTA agarose); not shown: His-tag, N-terminal, kept
T6 sequence (P10636 other isoform, or with tags, fused parts or gaps P179A | P179A | P179A P179A): as the sequence (P10636 other isoform, or with tags, fused parts or gaps P216A | P216A | P216A P216A) above, with P179A, A216P counted along it

binding result [1] | binding result [2] | binding result [3] | binding result [4] | binding result [5] | binding result [6] | binding result [7] | Binder
binds | binds | binds |  |  |  |  | B1
 |  |  | binds |  |  |  | B2
 |  |  | binds |  |  |  | B3
binds | binds |  |  | binds | binds | binds | B4

From PMC8592984, “Tau activates microglia via the PQBP1-cGAS-STING pathway to promote brain inflammation” (Nature Communications, 2021)
